Data as given in article PMC3680789.

Target: T1, ScPif1 (Saccharomyces cerevisiae, UniProt P07271 40-859)
T1 sequence: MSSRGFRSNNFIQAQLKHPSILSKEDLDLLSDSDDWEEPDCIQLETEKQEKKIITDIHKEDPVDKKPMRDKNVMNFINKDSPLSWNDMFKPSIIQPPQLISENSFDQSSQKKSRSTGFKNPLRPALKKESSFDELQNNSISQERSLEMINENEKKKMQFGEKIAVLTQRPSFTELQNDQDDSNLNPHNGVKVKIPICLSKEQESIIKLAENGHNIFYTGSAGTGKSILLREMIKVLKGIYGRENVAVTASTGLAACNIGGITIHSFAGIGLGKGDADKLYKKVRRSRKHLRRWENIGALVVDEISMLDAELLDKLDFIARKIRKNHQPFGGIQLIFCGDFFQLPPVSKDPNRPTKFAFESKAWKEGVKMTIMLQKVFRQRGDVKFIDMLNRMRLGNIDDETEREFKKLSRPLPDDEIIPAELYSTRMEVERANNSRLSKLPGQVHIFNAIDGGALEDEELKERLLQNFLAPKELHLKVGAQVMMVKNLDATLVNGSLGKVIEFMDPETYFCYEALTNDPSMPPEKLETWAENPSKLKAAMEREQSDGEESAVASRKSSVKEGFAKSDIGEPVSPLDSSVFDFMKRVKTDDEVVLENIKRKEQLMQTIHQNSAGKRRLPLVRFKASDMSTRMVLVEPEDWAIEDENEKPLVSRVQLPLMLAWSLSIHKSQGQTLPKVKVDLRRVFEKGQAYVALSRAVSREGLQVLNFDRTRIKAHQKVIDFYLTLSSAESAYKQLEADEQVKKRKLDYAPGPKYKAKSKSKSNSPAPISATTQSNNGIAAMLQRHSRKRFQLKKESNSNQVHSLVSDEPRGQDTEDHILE
Assay: filter binding

CAAAGGACCCTTTGTGGATC (ssDNA) [non-G-rich 20-mer (NG)]
Kd: 200 pM

CGGCCCGGCGGTCCGCGGTC (ssDNA) [G-rich 20-mer (GR)]
Kd: 40 pM
